For one substance, time to 50% degradation of the C4bα′ chain (cofactor activity for factor I, densitometry) results are on record in patent US20060115897A1.

The target in the test is C4b (UniProt P0C0L4). The experiment in a line: cell-based or functional assay.
C4b, sequence (P0C0L4 20-1744): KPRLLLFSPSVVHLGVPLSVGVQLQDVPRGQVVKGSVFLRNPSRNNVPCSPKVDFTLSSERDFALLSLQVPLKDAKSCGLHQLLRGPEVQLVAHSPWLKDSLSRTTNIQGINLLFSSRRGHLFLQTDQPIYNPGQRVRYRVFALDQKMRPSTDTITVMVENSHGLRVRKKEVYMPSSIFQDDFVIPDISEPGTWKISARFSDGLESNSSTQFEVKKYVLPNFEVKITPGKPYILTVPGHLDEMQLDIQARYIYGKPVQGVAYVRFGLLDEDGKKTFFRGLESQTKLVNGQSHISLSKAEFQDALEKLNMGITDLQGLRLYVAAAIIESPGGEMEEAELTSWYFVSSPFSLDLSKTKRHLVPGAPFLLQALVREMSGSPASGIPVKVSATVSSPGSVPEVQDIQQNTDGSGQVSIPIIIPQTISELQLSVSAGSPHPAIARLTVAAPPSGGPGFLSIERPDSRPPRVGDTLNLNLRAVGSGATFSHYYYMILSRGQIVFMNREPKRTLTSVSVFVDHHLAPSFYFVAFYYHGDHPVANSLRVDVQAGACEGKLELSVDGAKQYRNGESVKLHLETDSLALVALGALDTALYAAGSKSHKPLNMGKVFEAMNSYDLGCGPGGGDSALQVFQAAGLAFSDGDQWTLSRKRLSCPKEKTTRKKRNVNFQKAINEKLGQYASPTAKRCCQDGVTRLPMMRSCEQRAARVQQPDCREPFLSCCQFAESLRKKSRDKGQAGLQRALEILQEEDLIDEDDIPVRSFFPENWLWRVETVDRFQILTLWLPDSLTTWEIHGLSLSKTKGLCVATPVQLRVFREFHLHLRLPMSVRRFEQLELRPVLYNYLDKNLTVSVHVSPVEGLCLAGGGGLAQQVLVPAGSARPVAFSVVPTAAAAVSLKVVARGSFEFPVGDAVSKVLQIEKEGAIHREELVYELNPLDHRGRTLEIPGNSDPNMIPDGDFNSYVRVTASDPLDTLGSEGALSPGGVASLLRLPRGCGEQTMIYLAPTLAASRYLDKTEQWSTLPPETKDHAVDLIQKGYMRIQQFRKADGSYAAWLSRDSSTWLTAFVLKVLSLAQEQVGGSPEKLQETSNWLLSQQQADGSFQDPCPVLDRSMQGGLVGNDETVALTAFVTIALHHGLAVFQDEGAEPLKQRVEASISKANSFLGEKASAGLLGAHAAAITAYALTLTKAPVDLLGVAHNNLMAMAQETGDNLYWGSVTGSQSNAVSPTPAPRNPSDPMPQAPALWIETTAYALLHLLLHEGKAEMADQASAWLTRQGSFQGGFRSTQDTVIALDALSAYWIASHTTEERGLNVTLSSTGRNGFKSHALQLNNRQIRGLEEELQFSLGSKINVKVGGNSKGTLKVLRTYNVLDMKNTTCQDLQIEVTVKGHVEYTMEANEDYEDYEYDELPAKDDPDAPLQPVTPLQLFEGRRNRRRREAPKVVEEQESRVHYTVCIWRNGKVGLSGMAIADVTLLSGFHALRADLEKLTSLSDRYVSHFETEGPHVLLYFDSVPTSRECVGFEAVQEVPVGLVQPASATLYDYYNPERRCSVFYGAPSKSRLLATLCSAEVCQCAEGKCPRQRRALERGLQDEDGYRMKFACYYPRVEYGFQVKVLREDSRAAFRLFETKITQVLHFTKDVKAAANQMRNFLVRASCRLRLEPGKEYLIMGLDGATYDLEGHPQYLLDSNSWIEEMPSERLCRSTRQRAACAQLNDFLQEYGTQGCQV

On to “soluble human CR1 (from UniProt P17927 42-1971) (receptor)”, for which the time to 50% degradation of the C4bα′ chain (cofactor activity for factor I, densitometry) is 15 min.
